Source: paper PMC12797016
Where “and” joins values, the source holds several entries; their conditions need not be identical. Equal values may be shown once.

Columns and labels:
[1] = molecular target: LC8 (dynein light chain, DYNLL1/DYNLL2) (Homo sapiens) (UniProt P63167); assay: ITC; conditions: cited from earlier work
[2] = molecular target: LC8 (dynein light chain, DYNLL1/DYNLL2) (Homo sapiens) (UniProt P63167); assay: ITC; conditions: cited from earlier work; remark: listed apart in the source
[3] = molecular target: LC8 (dynein light chain, DYNLL1/DYNLL2) (Homo sapiens) (UniProt P63167); assay: ITC; conditions: cited from earlier work; remark: listed apart in the source
[4] = molecular target: 6xHis-tagged rGKAP_(655–711) (Rattus norvegicus) (UniProt P97836); assay: BLI; 6xHis-tagged rGKAP655-711 immobilised on Ni-NTA biosensors (5 ug/mL, 90 s); LC8 dimers 3.125-50 uM, association and dissociation 90 s each; kinetic buffer 50 mM sodium phosphate, 20 mM NaCl, pH 6.0, 20 mM imidazole, 0.1% BSA, 0.02% Tween 20, 0.02% NaN3; sensors hydrated at 25 °C; global fit; BLItz
[5] = molecular target: rGKAP_(655–711), LC8-binding segment of Rattus norvegicus guanylate kinase-associated protein (GKAP), His tag removed (Rattus norvegicus) (UniProt P97836); assay: dynamic light scattering; particle size of GKAP, LC8 dimer and their complex at 20 °C; W130i DLS device
[6] = molecular target: LC8 (dynein light chain, DYNLL1/DYNLL2) (Homo sapiens) (UniProt P63167); assay: ITC; conditions: cited from earlier work; remark: listed apart in the source
[7] = molecular target: LC8 (dynein light chain, DYNLL1/DYNLL2) (Homo sapiens) (UniProt P63167); assay: ITC; conditions: cited from earlier work; remark: listed apart in the source
[8] = molecular target: LC8 (dynein light chain, DYNLL1/DYNLL2) (Homo sapiens) (UniProt P63167); assay: ITC; conditions: cited from earlier work; remark: listed apart in the source
[9] = molecular target: LC8 (dynein light chain, DYNLL1/DYNLL2) (Homo sapiens) (UniProt P63167); assay: ITC; conditions: cited from earlier work; remark: listed apart in the source
[10] = molecular target: LC8 (dynein light chain, DYNLL1/DYNLL2) (Homo sapiens) (UniProt P63167); assay: ITC; conditions: cited from earlier work; remark: listed apart in the source
[11] = molecular target: LC8 (dynein light chain, DYNLL1/DYNLL2) (Homo sapiens) (UniProt P63167); assay: ITC; conditions: cited from earlier work; remark: listed apart in the source
[12] = molecular target: LC8 (dynein light chain, DYNLL1/DYNLL2) (Homo sapiens) (UniProt P63167); assay: ITC; conditions: cited from earlier work; remark: listed apart in the source
[13] = molecular target: LC8 (dynein light chain, DYNLL1/DYNLL2) (Homo sapiens) (UniProt P63167); assay: ITC; conditions: cited from earlier work; remark: listed apart in the source
[14] = molecular target: LC8 (dynein light chain, DYNLL1/DYNLL2) (Homo sapiens) (UniProt P63167); assay: ITC; conditions: cited from earlier work; remark: listed apart in the source
[15] = molecular target: LC8 (dynein light chain, DYNLL1/DYNLL2) (Homo sapiens) (UniProt P63167); assay: ITC; conditions: cited from earlier work; remark: listed apart in the source
[16] = molecular target: LC8 (dynein light chain, DYNLL1/DYNLL2) (Homo sapiens) (UniProt P63167); assay: ITC; conditions: cited from earlier work; remark: listed apart in the source
[17] = molecular target: LC8 (dynein light chain, DYNLL1/DYNLL2) (Homo sapiens) (UniProt P63167); assay: ITC; conditions: cited from earlier work; remark: listed apart in the source
[18] = molecular target: LC8 (dynein light chain, DYNLL1/DYNLL2) (Homo sapiens) (UniProt P63167); assay: ITC; conditions: cited from earlier work; remark: listed apart in the source
[19] = molecular target: LC8 (dynein light chain, DYNLL1/DYNLL2) (Homo sapiens) (UniProt P63167); assay: ITC; conditions: cited from earlier work; remark: listed apart in the source
[20] = molecular target: LC8 (dynein light chain, DYNLL1/DYNLL2) (Homo sapiens) (UniProt P63167); assay: ITC; conditions: cited from earlier work; remark: listed apart in the source
[21] = molecular target: LC8 (dynein light chain, DYNLL1/DYNLL2) (Homo sapiens) (UniProt P63167); assay: ITC; conditions: cited from earlier work; remark: listed apart in the source
[22] = molecular target: LC8 (dynein light chain, DYNLL1/DYNLL2) (Homo sapiens) (UniProt P63167); assay: ITC; conditions: cited from earlier work; remark: listed apart in the source

Chain of UniProt P63167 (P63167 whole entry): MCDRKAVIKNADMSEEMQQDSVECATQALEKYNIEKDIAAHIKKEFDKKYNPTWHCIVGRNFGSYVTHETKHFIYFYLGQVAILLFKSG

protein panoramix
Kd [1]: 0.14 µM
Kd [2]: 0.075 µM

AMOTL1
Kd [1]: 1.55 µM

Sudv
Kd [1]: 6.45 µM

Bim
Kd [1]: 0.52 µM

WWC1
Kd [3]: 0.45 µM
Kd [1]: 4 µM

dynein light chain LC8 (DYNLL2, DLC2), Rattus norvegicus, dimer (natural protein)
Kd [4]: 0.29 µM
koff [4]: 0.0025 s⁻¹
kon [4]: 8800 M⁻¹ s⁻¹
stoichiometry N (LC8 dimers per GKAP segment (2 : 2)) [5]: 1

AKAP9
Kd [1]: 12.4 µM

NEK9
Kd [1]: 0.16 µM

ana2
Kd [6]: 1.14 µM
Kd [1]: 12.8 µM

bmf
Kd [1]: 0.79 µM

EML3
Kd [1]: 0.05 µM

nNOS
Kd [1]: 5.41 µM and 7 µM

AMOTL2
Kd [1]: 1.98 µM

IQUB
Kd [1]: 3.57 µM

IC
Kd [1]: 3 µM

Restv
Kd [1]: 62.1 µM

ALMS1
Kd [1]: 19.2 µM

WWC2
Kd [7]: 17.6 µM
Kd [1]: 32.7 µM

ASCIZ
Kd [8]: 7 µM
Kd [9]: 14 µM
Kd [10]: 9.3 µM
Kd [11]: 11 µM
Kd [12]: 10 µM
Kd [13]: 36 µM
Kd [14]: 15 µM
Kd [1]: 20 µM
Kd [15]: 15 µM

L-MAG
Kd [1]: 7.3 µM

dyn intermediate chain (ICTL)
Kd [16]: 8 µM
Kd [17]: 8 µM
Kd [1]: 0.5 µM

Kib2
Kd [1]: 4 µM

GKAP
Kd [1]: 2.4 µM

CFAP91
Kd [1]: 0.55 µM

Swa
Kd [1]: 0.62 µM

AMOT
Kd [1]: 1.2 µM

WWC3
Kd [18]: 3.5 µM
Kd [1]: 5.34 µM

NUP159
Kd [1]: 1 µM

CEP152
Kd [1]: 2.37 µM

myosin Va
Kd [1]: 9 µM

53BP1
Kd [19]: 0.62 µM
Kd [20]: 5.2 µM
Kd [1]: 1 µM

Kib1
Kd [1]: 0.45 µM

Myosin Va
Kd [1]: 8.85 µM

MAP4
Kd [1]: 4.42 µM

OFD1
Kd [1]: 12.5 µM and 12.8 µM

CDK5RAP2
Kd [1]: 12.5 µM

LCA5
Kd [1]: 2.6 µM and 8.1 µM

vp35 virus
Kd [21]: 3.91 µM
Kd [1]: 3.91 µM

Pak1
Kd [1]: 42.7 µM

SAO-1
Kd [22]: 0.5 µM
Kd [1]: 0.5 µM
